The values below come from patent US20120156201A1 (PROTAB, published 2012).

Assay [1] addresses T1, peptide-6 (HSP65-derived peptide, GPKGRNVVLEKKWGAP) (Mycobacterium tuberculosis).
T1 construct: also called peptide-6 antigen; 15
T1 peptide: GPKGRNVVLEKKWGAP
Briefly: ELISA, peptide-6 coated at 10 µg/ml. A general note: ELISA stands for enzyme-linked immunosorbent assay.

Assay [2] deals with T1, peptide-6 (HSP65-derived peptide, …). Briefly: ELISA, peptide-6 coated at 10 µg/ml, anti-human IgG kappa peroxidase.
Assay [3] shares this target. The experiment in a line: ELISA, peptide-6 coated plate.
The target of assay [4] is T2, human adenylyl cyclase-associated protein 1 (CAP1) fused to His tag at the N-terminus (human, UniProt Q01518 1-475).
T2 construct: also called His-CAP1; His-tagged CAP1; not shown: 6xHIS tag at the N terminus from a modified Pet22b vector
The experiment in a line: Western blot of over-expressed and purified His-CAP1. (In general: In western blotting, separated proteins are transferred to a membrane and probed.)

The target of assay [5] is T1, peptide-6 (HSP65-derived peptide, …). The experiment in a line: ELISA, plates precoated with 10 µg/ml peptide-6, goat anti-human IgG peroxidase.
For assay [6] the target is unchanged. The experiment in a line: ELISA, plates precoated with 10 µg/ml peptide-6, goat anti-mouse IgM peroxidase.

T2 sequence (Q01518 whole entry, the tested form may be a part): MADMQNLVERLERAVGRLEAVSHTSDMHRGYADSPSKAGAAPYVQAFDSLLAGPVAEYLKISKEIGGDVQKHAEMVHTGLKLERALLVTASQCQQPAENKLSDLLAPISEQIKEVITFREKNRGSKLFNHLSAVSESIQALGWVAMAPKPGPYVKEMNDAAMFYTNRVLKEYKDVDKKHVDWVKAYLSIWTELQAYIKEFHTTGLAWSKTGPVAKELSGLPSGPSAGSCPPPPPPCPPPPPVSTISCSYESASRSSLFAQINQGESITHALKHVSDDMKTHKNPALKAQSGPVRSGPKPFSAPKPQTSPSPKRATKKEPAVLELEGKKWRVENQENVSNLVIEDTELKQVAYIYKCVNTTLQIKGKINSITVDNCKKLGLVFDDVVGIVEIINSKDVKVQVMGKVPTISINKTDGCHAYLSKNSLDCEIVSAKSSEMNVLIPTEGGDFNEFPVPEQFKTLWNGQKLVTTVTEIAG

B1: humanized anti-peptide-6 antibody variant VH2/VK2 (antibody, V domains shown)
VH: QVTLKESGPALVKPTQTLTLTCSFSGFSLSTSNMGVGWIRQPAGKGLEWLLHILWNDSKYYNPALKSRLTISKDTYKNQVVLTMTNMDPVDTATYYCARMGGYYGNYGYYAMDYWGQGTLVTVSS
VL: QIVLTQSPATLSLSPGERATMSCTASSSVSSSYLHWYQQKPGKAPKLWIYSTSNLASGVPSRFSGSGSGTDYTLTISSLQPEDFATYYCHQYHRSPPTFGQGTKLEIK
For B1, the binding result in assay [1] was “binds”.

B2: humanized anti-peptide-6 antibody variant VH4/VK3 (antibody, V domains shown)
VH: QVTLKESGPALVKPTQTLTLTCSFSGFSLSTSNMGVGWIRQPAGKGLEWLAHILWNDSKYYNPALKSRLTISKDTSKNQVVLTMTNMDPVDTATYYCARMGGYYGNYGYYAMDYWGQGTLVTVSS
VL: QIVLTQSPATLSLSPGERATLSCTASSSVSSSYLHWYQQKPGKAPKLWIYSTSNLASGVPSRFSGSGSGTDYTLTISSLQPEDFATYYCHQYHRSPPTFGQGTKLEIK
Regarding B2, the binding result in assay [2] is on record as “binds”.

B3: humanized anti-peptide-6 antibody variant VH3/VK2 (antibody, V domains shown)
VH: QVTLKESGPALVKPTQTLTLTCSFSGFSLSTSNMGVGWIRQPAGKGLEWLLHILWNDSKYYNPALKSRLTISKDTSKNQVVLTMTNMDPVDTATYYCARMGGYYGNYGYYAMDYWGQGTLVTVSS
VL: QIVLTQSPATLSLSPGERATMSCTASSSVSSSYLHWYQQKPGKAPKLWIYSTSNLASGVPSRFSGSGSGTDYTLTISSLQPEDFATYYCHQYHRSPPTFGQGTKLEIK
Turning to B3, the binding result in assay [2] is “binds”.

B4: humanized anti-peptide-6 antibody variant VH3/VK1 (antibody, V domains shown)
VH: QVTLKESGPALVKPTQTLTLTCSFSGFSLSTSNMGVGWIRQPAGKGLEWLLHILWNDSKYYNPALKSRLTISKDTSKNQVVLTMTNMDPVDTATYYCARMGGYYGNYGYYAMDYWGQGTLVTVSS
VL: QIVLTQSPAILSLSPGERATMSCTASSSVSSSYLHWYQQKPGKAPKLWIYSTSNLASGVPSRFSGSGSGTDYTLTISSLQAEDFATYYCHQYHRSPPTFGQGTKLEIK
B4: the binding result in assay [3] is “binds”.

B5: humanized anti-peptide-6 antibody variant VH1/VK1 (antibody, V domains shown)
VH: QVTLKESGPAIVKPTQTLTLTCSFSGFSLSTSNMGVGWIRQPSGKGLEWLLHILWNDSKYYNPALKSRLTISKDTYKNQVVLTMTNMDPVDTATYYCARMGGYYGNYGYYAMDYWGQGTSVTVSS
VL: QIVLTQSPAILSLSPGERATMSCTASSSVSSSYLHWYQQKPGKAPKLWIYSTSNLASGVPSRFSGSGSGTDYTLTISSLQAEDFATYYCHQYHRSPPTFGQGTKLEIK
Consider B5, for which the binding result in assay [3] is “binds”.

B6: humanized anti-peptide-6 antibody variant VH1/VK3 (antibody, V domains shown)
VH: QVTLKESGPAIVKPTQTLTLTCSFSGFSLSTSNMGVGWIRQPSGKGLEWLLHILWNDSKYYNPALKSRLTISKDTYKNQVVLTMTNMDPVDTATYYCARMGGYYGNYGYYAMDYWGQGTSVTVSS
VL: QIVLTQSPATLSLSPGERATLSCTASSSVSSSYLHWYQQKPGKAPKLWIYSTSNLASGVPSRFSGSGSGTDYTLTISSLQPEDFATYYCHQYHRSPPTFGQGTKLEIK
Take B6: the binding result in assay [3] was “binds”.

B7: humanized anti-peptide-6 antibody variant VH4/VK2 (antibody, V domains shown)
VH: QVTLKESGPALVKPTQTLTLTCSFSGFSLSTSNMGVGWIRQPAGKGLEWLAHILWNDSKYYNPALKSRLTISKDTSKNQVVLTMTNMDPVDTATYYCARMGGYYGNYGYYAMDYWGQGTLVTVSS
VL: QIVLTQSPATLSLSPGERATMSCTASSSVSSSYLHWYQQKPGKAPKLWIYSTSNLASGVPSRFSGSGSGTDYTLTISSLQPEDFATYYCHQYHRSPPTFGQGTKLEIK
Turning to B7, the binding result in assay [2] is listed as “binds”.

B8: humanized anti-peptide-6 antibody variant VH3/VK3 (antibody, V domains shown)
VH: QVTLKESGPALVKPTQTLTLTCSFSGFSLSTSNMGVGWIRQPAGKGLEWLLHILWNDSKYYNPALKSRLTISKDTSKNQVVLTMTNMDPVDTATYYCARMGGYYGNYGYYAMDYWGQGTLVTVSS
VL: QIVLTQSPATLSLSPGERATLSCTASSSVSSSYLHWYQQKPGKAPKLWIYSTSNLASGVPSRFSGSGSGTDYTLTISSLQPEDFATYYCHQYHRSPPTFGQGTKLEIK
Take B8: the binding result in assay [2] is “binds”.

B9: humanized anti-peptide-6 antibody variant VH4/VK1 (antibody, V domains shown)
VH: QVTLKESGPALVKPTQTLTLTCSFSGFSLSTSNMGVGWIRQPAGKGLEWLAHILWNDSKYYNPALKSRLTISKDTSKNQVVLTMTNMDPVDTATYYCARMGGYYGNYGYYAMDYWGQGTLVTVSS
VL: QIVLTQSPAILSLSPGERATMSCTASSSVSSSYLHWYQQKPGKAPKLWIYSTSNLASGVPSRFSGSGSGTDYTLTISSLQAEDFATYYCHQYHRSPPTFGQGTKLEIK
For the molecule B9, in assay [2], the binding result is listed as “binds”.

B10: humanized anti-peptide-6 antibody variant VH2/VK3 (antibody, V domains shown)
VH: QVTLKESGPALVKPTQTLTLTCSFSGFSLSTSNMGVGWIRQPAGKGLEWLLHILWNDSKYYNPALKSRLTISKDTYKNQVVLTMTNMDPVDTATYYCARMGGYYGNYGYYAMDYWGQGTLVTVSS
VL: QIVLTQSPATLSLSPGERATLSCTASSSVSSSYLHWYQQKPGKAPKLWIYSTSNLASGVPSRFSGSGSGTDYTLTISSLQPEDFATYYCHQYHRSPPTFGQGTKLEIK
notes: also called humanized VH2/VK3; PRO01 VH2/VK3
On to B10, for which the binding result in assay [1] and in assay [4] was “binds” each time.

B11: humanized anti-peptide-6 antibody variant VH2/VK1 (antibody, V domains shown)
VH: QVTLKESGPALVKPTQTLTLTCSFSGFSLSTSNMGVGWIRQPAGKGLEWLLHILWNDSKYYNPALKSRLTISKDTYKNQVVLTMTNMDPVDTATYYCARMGGYYGNYGYYAMDYWGQGTLVTVSS
VL: QIVLTQSPAILSLSPGERATMSCTASSSVSSSYLHWYQQKPGKAPKLWIYSTSNLASGVPSRFSGSGSGTDYTLTISSLQAEDFATYYCHQYHRSPPTFGQGTKLEIK
Regarding B11, the binding result in assay [3] is “binds”.

B12: humanized anti-peptide-6 antibody variant VH1/VK2 (antibody, V domains shown)
VH: QVTLKESGPAIVKPTQTLTLTCSFSGFSLSTSNMGVGWIRQPSGKGLEWLLHILWNDSKYYNPALKSRLTISKDTYKNQVVLTMTNMDPVDTATYYCARMGGYYGNYGYYAMDYWGQGTSVTVSS
VL: QIVLTQSPATLSLSPGERATMSCTASSSVSSSYLHWYQQKPGKAPKLWIYSTSNLASGVPSRFSGSGSGTDYTLTISSLQPEDFATYYCHQYHRSPPTFGQGTKLEIK
As for B12, the binding result in assay [3] was “binds”.

B13: chimeric mouse-human anti-peptide-6 IgG1 antibody (antibody, V domains shown)
VH: QVTLKESGPGILQPSQTLSLTCSFSGFSLSTSNMGVGWIRQPSGKGLEWLLHILWNDSKYYNPALKSRLTISKDTYNNQVFLKIANVDTADTATYYCARMGGYYGNYGYYAMDYWGQGTSVTVSS
VL: QIVLTQSPAIMSASLGERVTMTCTASSSVSSSYLHWYQQKPGSSPKLWIYSTSNLASGVPARFSGSGSGTSYSLTISSMEAEDAATYYCHQYHRSPPTFGSGTKLEIK
notes: also called chimeric mouse IgG1; chimeric mouse antibody
In the case of B13, the binding result in assay [5] is “binds”.

B14: mouse anti-peptide-6 monoclonal antibody (IgM) (antibody, V domains shown)
VH: QVTLKESGPGILQPSQTLSLTCSFSGFSLSTSNMGVGWIRQPSGKGLEWLLHILWNDSKYYNPALKSRLTISKDTYNNQVFLKIANVDTADTATYYCARMGGYYGNYGYYAMDYWGQGTSVTVSS
VL: QIVLTQSPAIMSASLGERVTMTCTASSSVSSSYLHWYQQKPGSSPKLWIYSTSNLASGVPARFSGSGSGTSYSLTISSMEAEDAATYYCHQYHRSPPTFGSGTKLEIK
notes: also called mouse-IgM
On to B14, for which, in assay [6], the binding result was “binds”.
